Experimental data taken from patent US20240317871A1 (IMMUNOMIC THERAPEUTICS, published 2024).

T1: His-tagged human HVEM (human, UniProt Q92956 39-202, limits assumed)
T1 construct: Analyte of the BLI assay, 200 nM in PBS; not shown: His tag
T1 sequence (looked up): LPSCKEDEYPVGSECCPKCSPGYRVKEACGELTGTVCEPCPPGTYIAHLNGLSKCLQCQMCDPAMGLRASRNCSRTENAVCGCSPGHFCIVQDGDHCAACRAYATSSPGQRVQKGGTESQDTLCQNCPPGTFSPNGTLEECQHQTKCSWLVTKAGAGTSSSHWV

T2: Human HEVM recombinant protein (Sino Biological, 10334-H02H) (human, UniProt Q92956 39-202)
T2 construct: construct known only by catalogue number; also called HVEM; human HVEM
T2 sequence (looked up): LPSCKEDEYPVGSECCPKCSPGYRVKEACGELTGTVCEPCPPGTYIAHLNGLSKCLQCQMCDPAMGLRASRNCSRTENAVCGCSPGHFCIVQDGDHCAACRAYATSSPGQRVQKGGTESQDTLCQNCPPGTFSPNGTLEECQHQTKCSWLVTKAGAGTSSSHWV

T3: murine HVEM (murine, UniProt Q80WM9 39-206, limits assumed)
T3 construct: also called Mouse
T3 sequence (looked up): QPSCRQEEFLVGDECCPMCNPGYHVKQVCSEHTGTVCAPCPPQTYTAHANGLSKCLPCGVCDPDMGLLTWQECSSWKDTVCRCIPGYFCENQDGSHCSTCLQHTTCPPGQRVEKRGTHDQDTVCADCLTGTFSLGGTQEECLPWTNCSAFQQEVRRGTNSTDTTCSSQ

T4: cynomolgus monkey HVEM (cynomolgus monkey, UniProt A0A2K5W0R1 39-203)
T4 sequence: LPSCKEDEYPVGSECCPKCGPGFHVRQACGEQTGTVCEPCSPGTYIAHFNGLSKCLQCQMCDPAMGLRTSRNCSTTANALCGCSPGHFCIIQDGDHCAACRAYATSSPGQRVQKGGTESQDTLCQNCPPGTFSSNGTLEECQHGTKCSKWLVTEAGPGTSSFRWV

T5: human HVEM (human, UniProt Q92956 39-202, limits assumed)
T5 sequence (looked up): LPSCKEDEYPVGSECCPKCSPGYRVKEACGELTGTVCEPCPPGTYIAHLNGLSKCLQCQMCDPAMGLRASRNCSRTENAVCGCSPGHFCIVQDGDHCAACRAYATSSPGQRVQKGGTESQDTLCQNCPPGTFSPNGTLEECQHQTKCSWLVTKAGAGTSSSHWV


How the values were obtained:
His-tagged human HVEM = target: T1, His-tagged human HVEM; test: BLI OctetRed96, mAb captured, 200 nM His-HVEM
How it was run: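 Murine anti-human HVEM antibodies captured from culture supernatant on anti-mouse IgG Fc biosensors, then associated with 200 nM His-tagged human HVEM in PBS, followed by dissociation in PBS. koff, kon and KD obtained by curve fitting.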

[1] = target: T2, Human HEVM recombinant protein (Sino …); test: competition ELISA, competitor BTLA-His
How it was run: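 HVEM protein coated at 4 ug/ml; antibody serially diluted 3-fold over 7 points (final top 100 nM for BTLA, 325 nM for LIGHT), premixed with 400 nM His-tagged competitor and incubated 1 Hr at RT. Bound competitor detected by HRP-anti-His/TMB at 450 nm; IC50 calculated.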

[2] = target: T2, Human HEVM recombinant protein (Sino …); test: competition ELISA, competitor LIGHT-His
Protocol: The competitive activity of HVEM antibody to BTLA or LIGHT was evaluated with ELISA-based competitive assay. Briefly Human HEVM recombinant protein (Sino Biological, 10334-H02H, 4 ug/ml, 100 ul/well) was coated to ELISA plate (Thermo Scientific, 469949, 4C overnight). A pre-mixture of HVEM antibody clone with seral dilution and 400 nM BTLA-His (R&D systems, 9235-BT-050) or LIGHT-His (SinoBiological, 10386-H07H) recombinant protein was made and added to the ELISA plate after blocking with 3% BSA (200 ul/well, RT 2 Hr) for 1 Hr at RT. The serial dilutions of HVEM antibody clone involve 7 different concentrations, with a 3-fold dilution performed start from 100 nM for BTLA or 325 nM for LIGHT competitive assay. The concentration was the final concentration. Plate was washed with PBST; diluted HRP-anti-His (Biolegend, 652504, 1:1000) with PBS containing 5% FBS was added 100 ul per well for 1 Hr at RT. TMB substrate (KPL, 52-00-00) 100 ul per well after washing and incubate at room temperature for 15 minutes; then stop the development by adding 100 ul stop solution (KPL, 50-85-06). Plate was read at 450 nm. The IC50 was calculated using GraphPad Prism software (GraphPad Software, Inc. San Diego, CA, USA).

murine HVEM = target: T3, murine HVEM; test: ELISA
cynomolgus monkey HVEM = target: T4, cynomolgus monkey HVEM; test: ELISA
human HVEM = target: T5, human HVEM; test: ELISA

Row | Kd (His-tagged human HVEM) | koff (His-tagged human HVEM) | kon (His-tagged human HVEM) | IC50 [1] | IC50 [2] | ELISA signal (murine HVEM) | ELISA signal (cynomolgus monkey HVEM) | ELISA signal (human HVEM) | Binder
1 | 3.92 nM | 0.00148 s⁻¹ | 378000 M⁻¹ s⁻¹ | 1.1 nM | 15.3 nM | 0.043 | 0.058 | 3.22 | Ab_043 (H5S15-29A24A) (antibody, V domains shown, also called Ab_43) VH: EVQLQQSGAELVRPGALVKLSCKASGFNIKDDYMHWVKQRPEQGLEWIGWIDPENGNTIYDPKFQGKASITADTSSNTAYLQLSSLTSEDTAVYYCARGYSSSPYWGQGTLVTVSA VL: DIVLTQSPASLAVSLGQRATISCKASQSVDYDGNSYMNWYQQKPRQPPKLLIYAASNLESGIPARFRGSGSGTDFTLNIHPVEEEDAATYYCQQSNEDPFTFGSGTKLEIK
2 | 11.7 nM | 0.0197 s⁻¹ | 1.69e+06 M⁻¹ s⁻¹ | 1.6 nM | 252 nM | 0.045 | 0.062 | 3.36 | Ab_072 (H5S20-15A13A) (antibody, V domains shown, also called Ab_72) VH: EVQLQQSGAELVKPGASVKLSCTASGFNIKDTYMHWVKQRPEQGLEWIGRIDPANGNTKYDPKFQGKATITADTSSNTAYLQLSSLTSEDTAVYYCATSGGSSYDYWGQGTTLTVSS VL: not shown

Second part, the binder before the results:

Row | Binder | Kd (His-tagged human HVEM) | koff (His-tagged human HVEM) | kon (His-tagged human HVEM) | IC50 [1] | IC50 [2] | ELISA signal (murine HVEM) | ELISA signal (cynomolgus monkey HVEM) | ELISA signal (human HVEM)
3 | Ab_080 (H5S20-27A23A) (antibody, V domains shown, also called Ab_80) VH: EVQLQQSGTVLARPGASVKMSCKASGYSFTSYWMHWLKQRPGQGLEWIGAIYPGNSDTVFNQKFKGKAKLTAVTSATTAYMELSSLTNEDSAVYYCTKEPRTIEGAWFTYWGQGTLVTVSA VL: DIVMTQSPSSLTVPAGEKVTMSCKSSQSLLNSENQKNYLTWYQQKPGQPPKLLIYWASTRESGVPDRFTGSGSGTDFTLTISSVQAEDLAVYYCQSDYSYPLTFGAGTKLELK | 7.09 nM | 0.00115 s⁻¹ | 162000 M⁻¹ s⁻¹ | 1.8 nM | 37.3 nM | 0.048 | 2.26 | 3.07
4 | Ab_036 (H5S15-12A13A) (antibody, V domains shown, also called Ab_36) VH: EVQLQQSGAELVKPGASVKLSCTASGFNIKDTYMHWVKQRPEQGLEWIGRIDPANGNTKFDPKFQGKATITADTSSNTAYLQLSSLTSEDTAVYYCASRGGSSFDYWGQGTTLTVSS VL: DIVLTQSPASLAVSLGQRATISCKASQSVDYDGESYMNWYQQKPGQPPKLLIYAASNLDSGIPARFSGSGSGTDFTLNIHPVEEEDAATYYCQQSNEDPLTFGAGTKLELK | 18.7 nM | 0.0107 s⁻¹ | 571000 M⁻¹ s⁻¹ | 0.8 nM | 18.7 nM | 0.046 | 0.079 | 3.26
5 | Ab_078 (H5S20-45A34A) (antibody, V domains shown, also called Ab_78) VH: EVQLQQSGAELVRSGASVKLSCAASGFNIKDYYMHWVKQRPEQGLEWIGWIDPENGDTEFAPKFQGKATLTADTSSNTAYLQLSSLTSEDTAVYYCNTRTLGYWGQGTLVTVSA VL: QIVLTQSPALMSASPGEKVTMTCTASSSVSYMYWYQQKPRSSPKPWIYLTSNLASGVPARFSGSGSGTSYSLTISSMEAEDAATYYCQQWSSNPLTFGAGTKLELR | 4.95 nM | 0.0023 s⁻¹ | 466000 M⁻¹ s⁻¹ | 1.5 nM | 14.5 nM | 0.046 | 0.063 | 3.08
